Test results reported in patent US20210032365A1 (Chugai, published 2021).

Columns and labels:
[1] = target: T1, human C1s (human, UniProt P09871 16-688); assay: SPR, Ab captured; pH 7.4, 1.2 mM Ca
T1 construct: also called hC1s; serum-derived human C1s (CompTech)
T1 sequence: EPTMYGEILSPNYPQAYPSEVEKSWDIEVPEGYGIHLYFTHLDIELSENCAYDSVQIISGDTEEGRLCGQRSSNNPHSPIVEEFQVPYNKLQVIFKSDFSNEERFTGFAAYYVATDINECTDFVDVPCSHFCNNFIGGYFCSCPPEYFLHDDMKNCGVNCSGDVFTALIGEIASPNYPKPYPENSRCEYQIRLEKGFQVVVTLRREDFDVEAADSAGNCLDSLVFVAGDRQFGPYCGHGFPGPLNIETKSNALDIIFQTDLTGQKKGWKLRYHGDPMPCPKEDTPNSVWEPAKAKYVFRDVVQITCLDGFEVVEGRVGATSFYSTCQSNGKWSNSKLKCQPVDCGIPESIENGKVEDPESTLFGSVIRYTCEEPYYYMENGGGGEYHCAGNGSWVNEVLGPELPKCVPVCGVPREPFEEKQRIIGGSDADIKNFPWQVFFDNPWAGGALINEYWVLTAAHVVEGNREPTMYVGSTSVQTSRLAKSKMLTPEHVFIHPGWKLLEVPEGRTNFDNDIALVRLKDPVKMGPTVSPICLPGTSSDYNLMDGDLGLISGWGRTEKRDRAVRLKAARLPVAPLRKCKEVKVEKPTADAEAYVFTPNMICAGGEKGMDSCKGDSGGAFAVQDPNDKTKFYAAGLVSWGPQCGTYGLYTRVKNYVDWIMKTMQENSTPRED
Protocol: (§1) Each antibody was captured onto the sensor surface by protein A/G. Antibody capture levels were aimed at 200 resonance unit (RU). Serum-derived human C1s (CompTech) or recombinant C1s prepared in EXAMPLE 1 was injected at 50 nM, followed by dissociation. The sensor surface was regenerated in each cycle with 10 mM Glycine-HCl, pH 1.5. […] The ratio of KD 5.8+ to KD 7.4+(“KD 5+/7+”) and that of KD 5.8− to KD 7.4+(“KD 5−/7+”) were calculated. When the KD 5+/7+ or KD 5−/7+ of a variant is larger than that of the parent antibody IPN009VH2-SG4GK/IPN009VK3-SK1, that variant is considered to be “pH”- or “pH and Ca”-dependent, respectively. When binding response in 5(+) buffer and/or in 5(−) buffer of a variant is much lower than that of IPN09VH2/IPN009VK3, that variant is also considered as “pH”- and/or “pH and Ca”-dependent. Therefore, such mutations are effective to generate “pH”- and/or “pH and Ca”-dependent antibody. To further enhance “pH” and/or “pH and Ca” dependency, a combination of histidine mutations was conducted. Antibodies with combinations of histidine mutations were evaluated using Biacore by the method described above.
(§2) C1_1IPN92H0033 (SEQ ID NO: 17)-SG4GK/IPN93L0024 (SEQ ID NO: 18)-SK1 (IPN92H0033/IPN93L0024) was selected for further optimization. Histidine, Lysine, Arginine, aspartic acid, glutamic acid, and glutamine scanning was conducted for CDRs and certain positions of FRs of IPN92H0033/IPN93L0024. Variants with a mutation were generated and purified, and evaluated using Biacore by the method mentioned above. All variants were evaluated using Biacore as mentioned above. Mutations that improved “pH” and/or “pH and Ca” dependency were selected for the combination.

[2] = target: T1, human C1s; assay: SPR; KD pH 5.8 1.2 mM Ca / KD pH 7.4 1.2 mM Ca
Protocol: (§3) All variants were transiently expressed and purified by the method described above. The binding affinity of each histidine-substituted variant at pH 7.4 and pH 5.8 was determined at 37 degrees C. using Biacore T200 instrument (GE Healthcare). Recombinant Protein A/G (Pierce) was immobilized onto all flow cells of a CM4 sensor chip using an amine coupling kit (GE Healthcare). Antibodies and analytes were prepared in 7(+) buffer (20 mM ACES, 150 mM NaCl, 1.2 mM CaCl2, 0.05% Tween 20, 0.005% NaN3, pH 7.4), 5(+) buffer (20 mM ACES, 150 mM NaCl, 1.2 mM CaCl2, 0.05% Tween 20, 0.005% NaN3, pH 5.8), or 5(−) buffer (20 mM ACES, 150 mM NaCl, 3 micro M CaCl2, 0.05% Tween 20, 0.005% NaN3, pH 5.8). Each antibody was captured onto the sensor surface by protein A/G. Antibody capture levels were aimed at 200 resonance unit (RU). Serum-derived human C1s (CompTech) or recombinant C1s prepared in EXAMPLE 1 was injected at 50 nM, followed by dissociation. The sensor surface was regenerated in each cycle with 10 mM Glycine-HCl, pH 1.5. […] The ratio of KD 5.8+ to KD 7.4+(“KD 5+/7+”) and that of KD 5.8− to KD 7.4+(“KD 5−/7+”) were calculated. When the KD 5+/7+ or KD 5−/7+ of a variant is larger than that of the parent antibody IPN009VH2-SG4GK/IPN009VK3-SK1, that variant is considered to be “pH”- or “pH and Ca”-dependent, respectively. When binding response in 5(+) buffer and/or in 5(−) buffer of a variant is much lower than that of IPN09VH2/IPN009VK3, that variant is also considered as “pH”- and/or “pH and Ca”-dependent. Therefore, such mutations are effective to generate “pH”- and/or “pH and Ca”-dependent antibody. To further enhance “pH” and/or “pH and Ca” dependency, a combination of histidine mutations was conducted. Antibodies with combinations of histidine mutations were evaluated using Biacore by the method described above.

[3] = target: T1, human C1s; assay: SPR, Ab captured; pH 5.8, 1.2 mM Ca
Protocol: as §3

[4] = target: T1, human C1s; assay: SPR, Ab captured; pH 7.4, 1.2 mM Ca; remark: listed apart in the source
Protocol: as §3

[5] = target: T1, human C1s; assay: SPR; KD pH 5.8 3 uM Ca / KD pH 7.4 1.2 mM Ca
Protocol: as §3

[6] = target: T2, human C1s (human, UniProt P09871 16-688); assay: SPR (Biacore T200, 37C), Ab captured on protein A/G; pH 5.8, 1.2 mM Ca
T2 construct: Analyte in the Biacore assays; also called hC1s; serum-derived human C1s (CompTech)
T2 sequence: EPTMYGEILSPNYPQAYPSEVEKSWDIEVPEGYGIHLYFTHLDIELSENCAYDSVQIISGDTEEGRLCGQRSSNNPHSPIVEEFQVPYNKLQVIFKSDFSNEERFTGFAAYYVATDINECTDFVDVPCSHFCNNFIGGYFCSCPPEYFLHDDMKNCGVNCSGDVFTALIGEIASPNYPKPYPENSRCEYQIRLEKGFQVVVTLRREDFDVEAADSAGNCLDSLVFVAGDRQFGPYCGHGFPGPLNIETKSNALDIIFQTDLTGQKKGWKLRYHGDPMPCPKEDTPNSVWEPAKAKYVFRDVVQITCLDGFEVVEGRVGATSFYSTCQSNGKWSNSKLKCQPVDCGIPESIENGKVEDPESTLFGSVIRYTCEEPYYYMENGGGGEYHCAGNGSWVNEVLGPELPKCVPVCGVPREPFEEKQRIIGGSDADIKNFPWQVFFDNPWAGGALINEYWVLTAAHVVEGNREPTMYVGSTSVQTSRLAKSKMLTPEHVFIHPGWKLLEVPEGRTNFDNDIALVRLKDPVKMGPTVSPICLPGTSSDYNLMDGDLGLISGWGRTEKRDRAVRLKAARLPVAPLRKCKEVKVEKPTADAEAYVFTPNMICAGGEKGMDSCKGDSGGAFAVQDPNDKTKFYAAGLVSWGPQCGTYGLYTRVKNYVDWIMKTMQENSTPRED
Protocol: as §1, §2

[7] = target: T2, human C1s; assay: SPR; KD at pH 5.8 (3 uM Ca) over KD at pH 7.4 (1.2 mM Ca)
Protocol: as §1, §2

[8] = target: T2, human C1s; assay: SPR (Biacore T200, 37C), Ab captured on protein A/G; pH 5.8, 3 uM Ca
Protocol: as §1, §2

[9] = target: T2, human C1s; assay: SPR; KD at pH 5.8 (1.2 mM Ca) over KD at pH 7.4 (1.2 mM Ca)
Protocol: as §1, §2

B1: C1_IPN92H0033-SG4GK/IPN93L0024-SK1 (antibody, human IgG4 S228P, kappa)
heavy: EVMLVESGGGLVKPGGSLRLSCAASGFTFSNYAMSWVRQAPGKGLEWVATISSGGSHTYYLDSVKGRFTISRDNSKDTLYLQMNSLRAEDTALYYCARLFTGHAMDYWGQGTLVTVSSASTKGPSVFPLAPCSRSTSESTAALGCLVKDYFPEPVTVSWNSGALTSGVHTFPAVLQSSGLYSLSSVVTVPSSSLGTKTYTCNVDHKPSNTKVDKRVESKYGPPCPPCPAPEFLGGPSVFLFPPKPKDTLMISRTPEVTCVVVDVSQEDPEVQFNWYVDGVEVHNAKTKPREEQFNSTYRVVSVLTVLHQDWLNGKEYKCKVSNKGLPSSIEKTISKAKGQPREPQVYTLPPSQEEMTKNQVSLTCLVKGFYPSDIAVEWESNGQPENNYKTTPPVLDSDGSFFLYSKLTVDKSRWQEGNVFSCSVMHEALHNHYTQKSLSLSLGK
light: QIVLTQSPATLSLSPGERATLSCTASSSVSSSYLHWYQQKPGKAPKLWIYSTSNLASGVPSRFSGSGSGTDYTLTISSLQPEDFATYYCHQYYRLHPITFGQGTKLEIKRTVAAPSVFIFPPSDEQLKSGTASVVCLLNNFYPREAKVQWKVDNALQSGNSQESVTEQDSKDSTYSLSSTLTLSKADYEKHKVYACEVTHQGLSSPVTKSFNRGEC
notes: also called IPN92H0033/IPN93L0024
[1]
  koff: 0.000776 s⁻¹
  kon: 268000 M⁻¹ s⁻¹
[2]
  KD 5(+)/7(+): 3
[3]
  koff: 0.0045 s⁻¹
  kon: 519000 M⁻¹ s⁻¹
[4]
  koff: 0.000776 s⁻¹
  kon: 268000 M⁻¹ s⁻¹
[5]
  KD 5(-)/7(+): 1.8

B2: C1_IPN92H0279-SG4GK/IPN93L0091-SK1 (antibody, human IgG4 S228P, kappa, name in Kabat numbering, V domains shown)
VH: EVMLVESGGGLVKPGGSLRLSCAASGFTFSNYAMSWVRQAPGKGLEWVATISSGGSHTYELDSVKERFTISRDNSKDTLYLQMNSLRAEDTALYYCARLFTKHAMDYWGQGTLVTVSS
VL: QIVLTQSPATLSLSPGERATLSCTASSSVSSSRLHWYQQKPGKAPKLWIYSTSNLASGVPSRFSGSGSGTDYTLTISSLQPEDFATYYCHQYYRLHPITFGQGTKLEIKR
notes: Substitutions from IPN009VH2 / IPN009VK3, Kabat numbering; also called IPN92H0279/IPN93L0091
[6]
  Kd: 20 nM
  koff: 0.00684 s⁻¹
  kon: 342000 M⁻¹ s⁻¹
[7]
  KD 5(-)/7(+): 7.54
[8]
  Kd: 5.17 nM
  koff: 0.00611 s⁻¹
  kon: 1.18e+06 M⁻¹ s⁻¹
[9]
  KD 5(+)/7(+): 29.2

B3: C1_IPN92H0281-SG4GK/IPN93L0024-SK1 (antibody, human IgG4 S228P, kappa, name in Kabat numbering)
heavy: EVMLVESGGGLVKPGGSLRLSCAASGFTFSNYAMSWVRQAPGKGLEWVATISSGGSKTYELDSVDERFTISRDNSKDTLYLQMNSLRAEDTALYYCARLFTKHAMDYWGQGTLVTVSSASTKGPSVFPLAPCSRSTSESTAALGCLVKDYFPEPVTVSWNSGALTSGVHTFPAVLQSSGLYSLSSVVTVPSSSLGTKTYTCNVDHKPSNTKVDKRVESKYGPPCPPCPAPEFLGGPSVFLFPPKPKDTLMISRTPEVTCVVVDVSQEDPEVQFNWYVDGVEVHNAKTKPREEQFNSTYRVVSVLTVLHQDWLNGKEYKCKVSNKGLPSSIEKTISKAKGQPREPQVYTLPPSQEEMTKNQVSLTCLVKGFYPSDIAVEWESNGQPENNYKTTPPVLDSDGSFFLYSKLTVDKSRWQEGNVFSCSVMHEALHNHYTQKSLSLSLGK
light: QIVLTQSPATLSLSPGERATLSCTASSSVSSSYLHWYQQKPGKAPKLWIYSTSNLASGVPSRFSGSGSGTDYTLTISSLQPEDFATYYCHQYYRLHPITFGQGTKLEIKRTVAAPSVFIFPPSDEQLKSGTASVVCLLNNFYPREAKVQWKVDNALQSGNSQESVTEQDSKDSTYSLSSTLTLSKADYEKHKVYACEVTHQGLSSPVTKSFNRGEC
notes: Substitutions from IPN009VH2, Kabat numbering; also called IPN92H0281/IPN93L0024
[6]
  Kd: 23.6 nM
  koff: 0.024 s⁻¹
  kon: 1.02e+06 M⁻¹ s⁻¹
[7]
  KD 5(-)/7(+): 1.98
[8]
  Kd: 4.98 nM
  koff: 0.003 s⁻¹
  kon: 602000 M⁻¹ s⁻¹
[9]
  KD 5(+)/7(+): 9.4

B4: C1_IPN92H0281-SG4GK/IPN93L0091-SK1 (antibody, human IgG4 S228P, kappa, name in Kabat numbering, V domains shown)
VH: EVMLVESGGGLVKPGGSLRLSCAASGFTFSNYAMSWVRQAPGKGLEWVATISSGGSKTYELDSVDERFTISRDNSKDTLYLQMNSLRAEDTALYYCARLFTKHAMDYWGQGTLVTVSS
VL: QIVLTQSPATLSLSPGERATLSCTASSSVSSSRLHWYQQKPGKAPKLWIYSTSNLASGVPSRFSGSGSGTDYTLTISSLQPEDFATYYCHQYYRLHPITFGQGTKLEIKR
notes: Substitutions from IPN009VH2 / IPN009VK3, Kabat numbering; also called IPN92H0281/IPN93L0091
[6]
  Kd: 11.3 nM
  koff: 0.00707 s⁻¹
  kon: 625000 M⁻¹ s⁻¹
[7]
  KD 5(-)/7(+): 0.82
[8]
  Kd: 3.88 nM
  koff: 0.00227 s⁻¹
  kon: 585000 M⁻¹ s⁻¹
[9]
  KD 5(+)/7(+): 2.4
